From patent publication US20220042026A1 (UNIVERSITY COURT OF THE UNIVERSITY OF GLASGOW, published 2022)

Target: the molecule itself
Experiment: immunoblot of unboiled N. benthamiana leaf extract, SDS-PAGE, anti-Kcv detection

B1: Blue Light-INduced K+ channel 1 (BLINK1) (other)
chain: MGCTVSAELATTLERIEKNFVITDPRLPDNPIIFASDSFLQLTEYSREEILGRNCRFLQGPETDRATVRKIRDAIDNQTEVTVQLINYTKSGKKFWNLFHLQPMRDQKGDVQYFIGVQLDGTEHVRDAAEREGVMLIKKTAEVFSKFLTRTEPFMIHLFILAMFVMIYKFFPGGFENNFSVANPDKKASWIDCIYFGVTTHSTVGFGDILPKTTGAKLCTIAHIVTVFFIVLTL
notes: Expressed transiently under the CaMV 35S promoter in N. benthamiana leaves; Unboiled total protein extract was run on SDS-PAGE; The tetramer was detected, with an expected Mw of 106.5 kDa; also called synthetic, blue light-gated K+ channel
binding result: binds
